# According to patent publication US20010029293A1:
# Columns and labels:
# [1] = target: LFA-1 (CD11a/CD18) on cells (human) (UniProt P20701); test: JY cell adhesion to coated shICAM-R, mAb 10 µg/ml
# [2] = target: LFA-1 (CD11a/CD18) on cells (human) (UniProt P20701); test: cell adhesion to coated shICAM-R, peptide 1-2 mg/ml
# [3] = target: LFA-1 (CD11a/CD18) on cells (human) (UniProt P20701); test: neutrophil adhesion to coated ICAM-R/Ig, mAb 15 µg/ml
# LFA-1 (CD11a/CD18) on cells (human), sequence (P20701 26-1170, chain 1 of 2): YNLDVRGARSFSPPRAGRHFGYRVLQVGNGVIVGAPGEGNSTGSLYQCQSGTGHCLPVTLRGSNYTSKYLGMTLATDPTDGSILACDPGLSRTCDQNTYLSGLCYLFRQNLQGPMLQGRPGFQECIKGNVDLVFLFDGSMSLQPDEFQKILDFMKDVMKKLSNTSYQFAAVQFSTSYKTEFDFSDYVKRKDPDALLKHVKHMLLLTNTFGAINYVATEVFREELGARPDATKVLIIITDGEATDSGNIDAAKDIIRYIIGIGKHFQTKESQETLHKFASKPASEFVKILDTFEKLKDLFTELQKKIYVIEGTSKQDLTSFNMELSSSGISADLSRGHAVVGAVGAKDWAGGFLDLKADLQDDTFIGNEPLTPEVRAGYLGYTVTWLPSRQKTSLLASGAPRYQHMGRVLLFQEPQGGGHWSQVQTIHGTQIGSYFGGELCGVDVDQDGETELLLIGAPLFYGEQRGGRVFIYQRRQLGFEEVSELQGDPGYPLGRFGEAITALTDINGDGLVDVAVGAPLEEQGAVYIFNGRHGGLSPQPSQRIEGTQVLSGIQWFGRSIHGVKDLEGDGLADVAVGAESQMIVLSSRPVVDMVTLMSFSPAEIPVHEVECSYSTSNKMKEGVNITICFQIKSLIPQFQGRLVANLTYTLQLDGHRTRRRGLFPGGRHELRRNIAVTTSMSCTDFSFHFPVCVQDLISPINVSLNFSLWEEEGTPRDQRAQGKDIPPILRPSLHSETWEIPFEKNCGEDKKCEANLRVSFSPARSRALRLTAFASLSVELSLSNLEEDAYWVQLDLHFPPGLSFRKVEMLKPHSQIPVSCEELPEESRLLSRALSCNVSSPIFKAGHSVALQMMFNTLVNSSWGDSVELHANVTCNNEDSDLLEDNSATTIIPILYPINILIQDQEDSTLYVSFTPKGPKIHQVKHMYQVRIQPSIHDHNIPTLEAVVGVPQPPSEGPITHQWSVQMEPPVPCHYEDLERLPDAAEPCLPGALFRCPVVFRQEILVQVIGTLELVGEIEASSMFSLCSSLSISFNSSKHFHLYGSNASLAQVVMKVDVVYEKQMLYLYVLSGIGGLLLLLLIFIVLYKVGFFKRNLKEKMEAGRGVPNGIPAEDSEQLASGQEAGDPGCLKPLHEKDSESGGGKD
# LFA-1 (CD11a/CD18) on cells (human), sequence (P05107 23-769, chain 2 of 2, further chain): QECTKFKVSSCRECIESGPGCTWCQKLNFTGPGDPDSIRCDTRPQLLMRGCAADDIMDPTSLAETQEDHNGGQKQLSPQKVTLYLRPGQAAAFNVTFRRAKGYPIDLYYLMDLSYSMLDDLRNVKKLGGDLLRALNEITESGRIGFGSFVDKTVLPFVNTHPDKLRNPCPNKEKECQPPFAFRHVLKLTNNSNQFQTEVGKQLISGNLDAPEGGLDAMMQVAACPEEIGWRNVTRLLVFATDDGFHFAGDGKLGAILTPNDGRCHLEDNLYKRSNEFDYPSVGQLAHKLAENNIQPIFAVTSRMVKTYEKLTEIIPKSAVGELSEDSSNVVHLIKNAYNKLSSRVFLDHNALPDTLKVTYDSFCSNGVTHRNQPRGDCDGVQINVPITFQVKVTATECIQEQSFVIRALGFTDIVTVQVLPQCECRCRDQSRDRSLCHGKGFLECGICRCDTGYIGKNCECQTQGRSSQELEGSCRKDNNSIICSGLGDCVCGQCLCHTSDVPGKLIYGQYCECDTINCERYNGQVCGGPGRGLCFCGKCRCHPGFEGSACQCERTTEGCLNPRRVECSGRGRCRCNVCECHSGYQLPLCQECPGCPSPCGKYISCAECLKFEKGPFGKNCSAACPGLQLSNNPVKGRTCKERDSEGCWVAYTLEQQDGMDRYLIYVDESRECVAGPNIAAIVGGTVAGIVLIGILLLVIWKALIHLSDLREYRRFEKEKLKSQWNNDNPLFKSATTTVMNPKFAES
substance,measurement,setting,value
60.3 (antibody),Inhibition (%) of CD18-dependent JY cell binding,[1],100%
ICAM-R peptide 72-76 (NGSQI),% Inhibition CD18-Dependent Binding (SKW3),[2],26%
TS1/22 (antibody),% inhibition of neutrophil binding to ICAM-R,[3],50%
